The values that follow come from patent US20140141019A1 (INSERM INSTITUT NATIONALDE LA SENTE ET DE LA RECHERCHE …, published 2014).

Substitutions are numbered along the chain they refer to. In names and notes the source's numbering stands. Ends that are not written are not given here.

B1: U1-59 (Amgen/U3 Pharma-Daiichi Sankyo) (antibody, V domains shown)
VH: QVQLQQWGAGLLKPSETLSLTCAVYGGSFSGYYWSWIRQPPGKGLEWIGEINHSGSTNYNPSLKSRVTISVETSKNQFSLKLSSVTAADTAVYYCARDKWTWYFDLWGRGTLVTVSS
VL: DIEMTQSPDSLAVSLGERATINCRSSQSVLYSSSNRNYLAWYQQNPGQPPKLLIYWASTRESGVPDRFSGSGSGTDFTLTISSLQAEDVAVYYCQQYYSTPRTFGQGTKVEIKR
B2: mAb H3A-32 (purified human IgG) (antibody, V domains shown)
VH: EVQLVESGGGLVQPGGSLRLSCAASGFTFDDYAMHWVRQAPGKGLEWVSGISWNSGSIGYADSVKGRFTISRDNAKNSLYLQMNSLRAEDTAVYYCAREGQWPNYGMDVWGQGTTVTVSS
VL: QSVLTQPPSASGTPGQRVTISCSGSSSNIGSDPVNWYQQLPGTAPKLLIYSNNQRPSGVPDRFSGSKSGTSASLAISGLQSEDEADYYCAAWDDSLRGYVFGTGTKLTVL
notes: expressed as human IgG1 in transiently transfected HEK 293 cells, protein A purified
B3: mAb H4B-121 (purified human IgG) (antibody, V domains shown)
VH: B2 VH with G16R
VL: QSVLTQPPSVSAAPGQKVTISCPGSSSNIGNNYVSWYQQLPGTAPKLLIYDNNERPSGIPDRFSGSTSGTSATLDITDLQAEDEATYYCGAWDNTLGVYVLGTGTQLTVL
notes: expressed as human IgG1 in HEK 293 cells
B4: mAb H3A-76 (purified human IgG) (antibody, V domains shown)
VH: B2 VH with G16R, N77D
VL: QSVLTQPPSASGTPGQRVTISCSGSSSNIGSNSLNWYQQLPGTAPKLLIYSNNQRPPGVPDRFSGSRSGSSASLAISGLQSGDEGDYYCAAWDDSLKGYVFGTGTQLTVL
notes: as for B3
B5: mAb H4B-05 (purified human IgG) (antibody, V domains shown)
VH: B2 VH with G16R
VL: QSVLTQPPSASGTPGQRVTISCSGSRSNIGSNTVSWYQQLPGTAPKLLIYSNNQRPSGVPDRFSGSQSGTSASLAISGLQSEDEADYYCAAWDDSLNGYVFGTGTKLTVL
notes: as for B3
B6: mAb H3A-81 (purified human IgG) (antibody, V domains shown)
VH: B2 VH
VL: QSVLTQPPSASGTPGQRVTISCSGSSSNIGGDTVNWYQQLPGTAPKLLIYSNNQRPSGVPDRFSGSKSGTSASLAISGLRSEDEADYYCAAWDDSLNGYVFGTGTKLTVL
notes: as for B3
B7: Ab#6 (Merrimack Pharmaceuticals) (antibody, V domains shown)
VH: EVQLLESGGGLVQPGGSLRLSCAASGFTFSHYVMAWVRQAPGKGLEWVSSISSSGGWTLYADSVKGRFTISRDNSKNTLYLQMNSLRAEDTAVYYCTRGLKMATIFDYWGQGTLVTVSS
VL: QSALTQPASVSGSPGQSITISCTGTSSDVGSYNVVSWYQQHPGKAPKLIIYEVSQRPSGVSNRFSGSKSGNTASLTISGLQTEDEADYYCCSYAGSSIFVIFGGGTKVTVL
B8: Fab H3A-32 (Fab, V domains shown)
VH: B2 VH
VL: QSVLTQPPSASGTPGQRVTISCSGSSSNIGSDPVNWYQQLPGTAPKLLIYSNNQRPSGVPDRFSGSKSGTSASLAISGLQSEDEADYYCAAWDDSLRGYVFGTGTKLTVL
notes: Fab made in E. coli periplasm with a V5 tag and a C-terminal 6xHis tag; also called H3A-32 (Fab format)
B9: Fab H4B-121 (Fab, V domains shown)
VH: B2 VH with G16R
VL: B3 VL
notes: Fab made in E. coli periplasm with a V5 tag and a C-terminal 6xHis tag
B10: Fab H4B-05 (Fab, V domains shown)
VH: B2 VH with G16R
VL: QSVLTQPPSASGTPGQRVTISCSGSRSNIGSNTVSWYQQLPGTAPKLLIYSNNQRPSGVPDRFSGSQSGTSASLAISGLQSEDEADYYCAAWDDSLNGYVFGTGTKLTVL
notes: Fab made in E. coli periplasm with a V5 tag and a C-terminal 6xHis tag; also called H4B-05 (Fab format)
B11: Fab H3A-76 (Fab, V domains shown)
VH: B2 VH with G16R, N77D
VL: B4 VL
notes: Fab made in E. coli periplasm with a V5 tag and a C-terminal 6xHis tag; also called H3A-76 (Fab format)
B12: Fab H3A-81 (Fab, V domains shown)
VH: B2 VH
VL: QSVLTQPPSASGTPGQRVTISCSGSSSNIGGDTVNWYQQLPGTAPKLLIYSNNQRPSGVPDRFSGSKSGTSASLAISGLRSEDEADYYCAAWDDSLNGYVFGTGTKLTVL
notes: Fab made in E. coli periplasm with a V5 tag and a C-terminal 6xHis tag; also called H3A-81 (Fab format)

T5 sequence (Q61526 20-641, change not shown): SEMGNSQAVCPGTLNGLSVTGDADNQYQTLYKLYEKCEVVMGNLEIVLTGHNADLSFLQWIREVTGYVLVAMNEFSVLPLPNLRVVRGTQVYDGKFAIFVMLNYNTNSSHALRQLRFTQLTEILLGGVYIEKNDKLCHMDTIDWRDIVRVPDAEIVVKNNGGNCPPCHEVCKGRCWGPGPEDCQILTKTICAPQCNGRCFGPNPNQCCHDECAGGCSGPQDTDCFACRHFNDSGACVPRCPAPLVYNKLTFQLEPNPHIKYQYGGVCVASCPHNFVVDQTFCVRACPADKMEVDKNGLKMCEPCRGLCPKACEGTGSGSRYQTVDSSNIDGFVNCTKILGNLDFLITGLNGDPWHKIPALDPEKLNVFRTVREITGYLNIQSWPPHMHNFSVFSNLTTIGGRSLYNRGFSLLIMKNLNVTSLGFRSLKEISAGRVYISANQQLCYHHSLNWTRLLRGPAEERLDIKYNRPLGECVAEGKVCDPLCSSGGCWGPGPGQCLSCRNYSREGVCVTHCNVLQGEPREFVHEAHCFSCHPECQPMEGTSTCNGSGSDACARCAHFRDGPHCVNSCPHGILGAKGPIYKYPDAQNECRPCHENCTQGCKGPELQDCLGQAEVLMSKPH

The first assay has as its target T1, EGFR/HER4 on transfected NIH 3T3 cells (human, UniProt P00533 25-1210; Q15303 26-1308).
T1 construct: whole, on cells; NIH 3T3 cells transfected with both EGFR and HER4
Nature of the assay: flow cytometry, EGFR/HER4-transfected NIH-3T3 cells. How it is done: (§1) After three washes in PBS-BSA 0.1%, cells were incubated with the fluorescein-conjugated anti-human IgG-Fragment Fc specific (Sigma) at 4° C. in the dark for 45 min. Cells were then washed three times and suspended in PBS for analysis using an EPICS flow cytometer (Beckman-Coulter, Fullerton, Calif.).
Regarding B1, the geometric mean turned out to be 0.59.
Still for that read-out and setting: with B2 the figure was 0.53; with B3, 0.67.
On to B4, for which the geometric mean turned out to be 0.53.
On the same count and under the same terms, with B5 the figure was 0.52; with B6, 0.53; with B7, 0.51.

The target of another assay is T2, HER3 receptor on cells (HER3-transfected NIH 3T3 fibroblasts; SKBR3 cells; BxPC3 cells) (human, UniProt P21860 20-1342).
T2 construct: whole, on cells; also called ErbB3
Nature of the assay: flow cytometry, HER3-transfected NIH-3T3 cells. Here is the method: as §1
On the technique in general: A flow cytometer gives signals particle by particle.
B1: the geometric mean was determined as 9.32.
On the same count and under the same terms, with B2 the figure was 10.5; with B3, 12.3; with B4, 11.5.
Turning to B5, the geometric mean is 7.85.
The same measure, in the same setting: to B6 belongs 10.6; to B7, 7.77.

The next assay concerns the target T3, EGFR on transfected NIH 3T3 cells (human, UniProt P00533 25-1210).
T3 construct: whole, on cells
Nature of the assay: flow cytometry, EGFR-transfected NIH-3T3 cells. How it is done: as §1
With B1, the geometric mean was 0.25.
Consider B2, for which the geometric mean was 0.26.
The same measure, in the same setting: with B3 the figure was 0.33.
Same read-out and setting: with B4 the figure was 0.24.
Same read-out and setting: to B5 belongs 0.28.
B6 returned a geometric mean of 0.26.
The same measure, in the same setting: with B7 the figure was 0.21.

In the next assay the target is T4, human HER4-Fc (recombinant human extracellular domain ErbB4/HER4 Fc chimera, R&D Systems) (human, UniProt Q15303 26-651).
T4 construct: extracellular domain; Bought protein; Fc part of the bought chimera not given
T4 sequence (looked up): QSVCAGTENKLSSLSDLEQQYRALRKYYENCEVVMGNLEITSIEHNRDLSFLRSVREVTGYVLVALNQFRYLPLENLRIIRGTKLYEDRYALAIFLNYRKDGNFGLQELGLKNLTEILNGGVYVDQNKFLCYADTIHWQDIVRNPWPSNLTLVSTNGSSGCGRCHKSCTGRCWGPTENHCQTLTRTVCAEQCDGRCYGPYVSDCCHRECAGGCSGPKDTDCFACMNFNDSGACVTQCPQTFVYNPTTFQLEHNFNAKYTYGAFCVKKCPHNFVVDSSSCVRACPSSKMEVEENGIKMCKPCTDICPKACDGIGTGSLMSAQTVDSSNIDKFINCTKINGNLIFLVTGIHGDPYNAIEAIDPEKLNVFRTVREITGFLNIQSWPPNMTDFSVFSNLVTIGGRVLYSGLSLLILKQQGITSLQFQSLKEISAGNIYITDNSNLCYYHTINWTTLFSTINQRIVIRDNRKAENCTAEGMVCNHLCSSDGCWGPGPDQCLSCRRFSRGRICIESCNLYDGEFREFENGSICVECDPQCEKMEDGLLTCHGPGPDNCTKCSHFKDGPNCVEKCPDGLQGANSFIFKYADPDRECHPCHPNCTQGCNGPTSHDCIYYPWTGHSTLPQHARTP
Kind of assay: ELISA, coated HER4-Fc 50 ng. The text has this: The bound IgG were detected by using HRP-F(ab′) 2 goat anti human IgG F(ab′)2 specific (Interchim).
A general note: In an ELISA, binding on a coated surface is turned into a signal by an enzyme label.
Regarding B2, the binding result is “no binding (tested: 0.5 µg/ml)”.
Still for that read-out and setting: with B3 the entry was “no binding (tested: 0.5 µg/ml)”; with B4, “no binding (tested: 0.5 µg/ml)”; with B5, “no binding (tested: 0.5 µg/ml)”.
On the same count and under the same terms, to B6 belongs “no binding (tested: 0.5 µg/ml)”.

The next assay concerns the target T5, mouse HER3-Fc (recombinant mouse extracellular domain ErbB3/HER3 Fc chimera, R&D Systems) (mouse, UniProt Q61526 20-641).
T5 construct: extracellular domain; Bought protein; also called murine HER3; Fc part of the bought chimera not given
Kind of assay: ELISA, coated mouse HER3-Fc 250 ng/ml.
Consider B2, for which the binding result is “binds”.
Same read-out and setting: to B3 belongs “binds”.
The same measure, in the same setting: with B4 the entry was “binds”.
The same measure, in the same setting: with B5 the entry was “binds”.
As to B6, the binding result is “binds”.

Another assay deals with T6, HER3 peptide 343-357 DFLITGLNGDPWHKI (human, also: cellulose-bound).
T6 construct: SPOT peptide
T6 peptide: Ac-DFLITGLNGDPWHKI
Kind of assay: SPOT peptide array, antibody at 1 µg/ml.
With B3, the binding result was “binds”.

The next assay concerns the target T7, HER2/HER3 complex on transfected NIH 3T3 cells (human, UniProt P04626 23-1255; P21860 20-1342).
T7 construct: whole, on cells; NIH 3T3 cells transfected with both HER2 and HER3; also called HER2-HER3 heterodimer
Nature of the assay: flow cytometry, HER2/HER3-transfected NIH-3T3 cells. Here is the method: as §1
Turning to B1, the geometric mean was determined as 15.5.
Same read-out and setting: with B2 the figure was 68.8.
B3 displayed a geometric mean of 70.4.
The same measure, in the same setting: to B4 belongs 66.6; to B5, 13.3; to B6, 68.5.
On the same count and under the same terms, with B7 the figure was 14.1.

A further assay addresses T1, EGFR/HER4 on transfected NIH 3T3 cells. Kind of assay: flow cytometry, transfected NIH 3T3 cells. Here is the method: as §1
With B2, the binding result is listed as “no binding”.
Same read-out and setting: to B3 belongs “no binding”; to B4, “no binding”.
Take B5: the binding result is reported as “no binding”.
Still for that read-out and setting: to B6 belongs “no binding”.

In a further assay the target is T3, EGFR on transfected NIH 3T3 cells. Nature of the assay: flow cytometry, transfected NIH 3T3 cells. How it is done: as §1
Regarding B2, the binding result is on record as “no binding”.
Consider B3, for which the binding result is on record as “no binding”.
Still for that read-out and setting: with B4 the entry was “no binding”.
Still for that read-out and setting: to B5 belongs “no binding”; to B6, “no binding”.

A further assay has as its target T8, HER2 on transfected NIH 3T3 cells (human, UniProt P04626 23-1255).
T8 construct: whole, on cells
Nature of the assay: flow cytometry, transfected NIH 3T3 cells. Here is the method: as §1
As to B2, the binding result was “no binding”.
As to B3, the binding result was “no binding”.
Take B4: the binding result is recorded as “no binding”.
On the same count and under the same terms, to B5 belongs “no binding”; to B6, “no binding”.

A further assay addresses T4, human HER4-Fc (recombinant human …). Kind of assay: ELISA, coated HER4-Fc 250 ng, anti-V5-HRP. How it is done:
The purified human Fabs at various concentrations were incubated for 2 hours at 37° C. in coated wells at 250 ng HER3-Fc (or HER4-Fc). The bound Fabs were detected by using HRP-labeled anti-V5 antibody (Invitrogen). Revelation was done at 450 nm in the presence of TMB (Sigma). The Fabs were tested simultaneously for binding on HER3-Fc, HER4-Fc and on Bovine serum Albumin as control.
Turning to B8, the binding result is “no binding”.
B9: the binding result is “no binding”.
The same measure, in the same setting: with B10 the entry was “no binding”.
The same measure, in the same setting: to B11 belongs “no binding”.
On the same count and under the same terms, to B12 belongs “no binding”.

The next assay concerns the target T8, HER2 on transfected NIH 3T3 cells. Kind of assay: flow cytometry, HER2-transfected NIH-3T3 cells. How it is done: as §1
Turning to B1, the geometric mean is 0.42.
The same measure, in the same setting: to B2 belongs 0.44; to B3, 0.56.
On the same count and under the same terms, to B4 belongs 0.52; to B5, 0.41.
Same read-out and setting: to B6 belongs 0.5.
B7 yielded a geometric mean of 0.35.
